Target: GST-tagged FXR ligand binding domain (FXR-LBD)
Experiment: AlphaScreen or HTRF; FXR coactivator recruitment assay with increasing amounts of mometasone furoate (MF); GST-FXR-LBD on anti-GST acceptor beads, biotinylated SRC-1 peptide on streptavidin donor beads; 1 hour incubation with ligand, then 4 hours with beads

efficacy of SRC-1 recruitment with MF compared to CDCA: 12%
Substance: biotinylated SRC-1 peptide (co-activator)
